The text below walks through data of PMC5454392, “Selective BET bromodomain inhibition as an antifungal therapeutic strategy” (Nature Communications, 2017).

Numbered stars: 1 amine (or outer) side, 2 acyl side, 3 side chain; on linkers, the order of the positions; unused ones are H or OH. Square brackets hold non-standard residues; d marks the D form. Ends that are not written are not given here. Arg(Me2a) = CN(C)C(=N)NCCC[C@H](N)C(=O)O; Kac = CC(=O)NCCCC[C@H](N[*:1])C(=O)[*:2]; Lys(Me3) = C[N+](C)(C)CCCC[C@H](N)C(=O)O; Arg(Me2s) = CN=C(NC)NCCC[C@H](N)C(=O)O; Lys(Me2) = CN(C)CCCC[C@H](N)C(=O)O; Lys(Me) = CNCCCC[C@H](N)C(=O)O; me2a = not defined here

T1: CaBdf1 BD1 (GST-tagged, wild-type) (Candida albicans (strain SC5314 / ATCC …, UniProt Q5A4W8))
T1 chain: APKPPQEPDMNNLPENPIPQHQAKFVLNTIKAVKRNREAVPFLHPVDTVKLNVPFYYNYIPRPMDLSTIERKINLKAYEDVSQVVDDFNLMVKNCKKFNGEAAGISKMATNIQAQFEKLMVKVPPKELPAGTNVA

B1: H3 1-19 (peptide)
chain: ARTKQTARKSTGGKAPRKQ
modifications: A R T Kac Q T A Rme2s Kme1 S T G G K A P R K Q
B2: H3 1-19 (peptide)
chain: ARTKQTARKSTGGKAPRKQ
modifications: A Rme2s T Kme1 Q T A Rme2s K S T G G K A P R K Q
B3: H3 1-19 (peptide)
chain: ARTKQTARKSTGGKAPRKQ
modifications: A R T Kme1 Q T A Rme2s Kac S T G G K A P R K Q
B4: H3 1-19 (peptide)
chain: ARTKQTARKSTGGKAPRKQ
modifications: A Rme2a T Kme2 Q T A Rme2a Kme3 S T G G K A P R K Q
B5: H3 1-19 (peptide)
chain: A[Arg(Me2a)]T[Lys(Me3)]QTAR[Kac]STGGKAPRKQ
B6: H3 1-19 (peptide)
chain: ARTKQTARKSTGGKAPRKQ
modifications: A R T K Q T A R Kac S pT G G K A P R K Q
B7: H3 1-19 (peptide)
chain: ARTKQTARKSTGGKAPRKQ
modifications: A R T Kme3 Q T A Rme2s Kac S T G G K A P R K Q
B8: H3 1-19 (peptide)
chain: ARTKQTARKSTGGK(Ac)APRKQ
B9: H3 1-19 (peptide)
chain: ARTKQTARKSTGGKAPRKQ
modifications: A Rme2a T Kac Q T A Rme2s Kac S T G G K A P R K Q
B10: H3 1-19 (peptide)
chain: A[Arg(Me2s)]T[Lys(Me2)]QTAR[Lys(Me)]STGGKAPRKQ
B11: H3 1-19 (peptide)
chain: ARTKQTARKSTGGKAPRKQ
modifications: A Rme2s T Kme2 Q T A R Kme3 S T G G K A P R K Q
B12: H3 1-19 (peptide)
chain: ARTKQTARKSTGGKAPRKQ
modifications: A R T Kme3 Q T A Rme2s Kme1 S T G G K A P R K Q
B13: H3 1-19 (peptide)
chain: ARTKQTARKSTGGKAPRKQ
modifications: A R T Kme1 Q T A Rme2s Kme2 S T G G K A P R K Q
B14: H3 1-19 (peptide)
chain: ARTKQTARKSTGGKAPRKQ
modifications: A Rme2s T Kme1 Q T A Rme2s Kme1 S T G G K A P R K Q
B15: H3 1-19 (peptide)
chain: ARTKQTARKSTGGKAPRKQ
modifications: A Rme2s T Kme3 Q T A R Kme3 S T G G K A P R K Q
B16: H3 1-19 (peptide)
chain: ARTKQTARKSTGGKAPRKQ
modifications: A Rme2a T Kme2 Q T A Rme2a Kac S T G G K A P R K Q
B17: H3 1-19 (peptide)
chain: ARTKQTARKSTGGKAPRKQ
modifications: A R T K Q T A R Kme2 S T G G Kac A P R K Q
B18: H3 1-19 (peptide)
chain: ARTKQTARKSTGGKAPRKQ
modifications: A Rme2a T Kme3 Q T A Rme2s Kme3 S T G G K A P R K Q
B19: H3 1-19 (peptide)
chain: A[Arg(Me2a)]T[Lys(Me)]QTA[Arg(Me2a)][Lys(Me2)]STGGKAPRKQ
B20: H3 1-19 (peptide)
chain: ARTKQTARKSTGGKAPRKQ
modifications: A Rme2s T Kme2 Q T A Rme2s Kac S T G G K A P R K Q
B21: H3 1-19 (peptide)
chain: ARTK(me3)QTAR(me2a)K(me3)STGGKAPRKQ
modifications: reading uncertain
B22: H3 1-19 (peptide)
chain: AR(Me2s)TK(Me3)QTAR(Me2s)K(Ac)STGGKAPRKQ
B23: H3 1-19 (peptide)
chain: ARTKQTARKSTGGKAPRKQ
modifications: A Rme2s T Kme1 Q T A Rme2a Kac S T G G K A P R K Q
B24: H3 1-19 (peptide)
chain: ARTKQTARKSTGGKAPRKQ
modifications: A R T Kme1 Q T A Rme2a Kac S T G G K A P R K Q

For the assay, the target named is T1, CaBdf1 BD1 (GST-tagged, wild-type). Put plainly: histone peptide array (Active Motif MODified), 1 uM GST-tagged bromodomain, anti-GST detection, normalized mean intensity.
Molecule B1 gave a binding score of 0.00508.

With B2, the binding score was 0.00326.

In the case of B3, the binding score was determined as 0.0305.

Regarding B4, the binding score worked out at 0.00254.

Take B5: the binding score came to 0.0344.

The molecule B6 came in with a binding score of 0.00544.

The molecule B7 returned a binding score of 0.0286.

With B8, the binding score turned out to be 0.0319.

With B9, the binding score amounted to 0.0334.

B10 had a binding score of 0.00544.

Molecule B11 gave a binding score of 0.00145.

In turn, B12 showed a binding score of 0.00471.

Consider B13, for which the binding score came to 0.00471.

Molecule B14 yielded a binding score of 0.00326.

With B15, the binding score was 0.00254.

Molecule B16 registered a binding score of 0.0395.

B17 had a binding score of 0.0315.

Take B18: the binding score stood at 0.00508.

Molecule B19 registered a binding score of 0.0029.

B20 came in with a binding score of 0.0239.

B21 gave a binding score of 0.00508.

The molecule B22 showed a binding score of 0.017.

Take B23: the binding score amounted to 0.0381.

The molecule B24 showed a binding score of 0.0257.
